These results are taken from US20250195658A1 (ST JUDE CHILDREN S RESEARCH HOSPITAL, published 2025).

No end group written: not given here. *: point of attachment. Biotin = O=C1N[C@H]2[C@H](CS[C@H]2CCCCC(=O)*)N1; Ahx = NCCCCCC(=O)O

Assay [1] has as its target T1, Recombinant Human IL3RA protein conjugated to APC (Creative BioMart, CAT #IL3RA-3248HA) (human, UniProt P26951 19-305, limits assumed, conjugated to APC).
T1 construct: also called recombinant CD123 protein; Recombinant CD123
T1 sequence (looked up): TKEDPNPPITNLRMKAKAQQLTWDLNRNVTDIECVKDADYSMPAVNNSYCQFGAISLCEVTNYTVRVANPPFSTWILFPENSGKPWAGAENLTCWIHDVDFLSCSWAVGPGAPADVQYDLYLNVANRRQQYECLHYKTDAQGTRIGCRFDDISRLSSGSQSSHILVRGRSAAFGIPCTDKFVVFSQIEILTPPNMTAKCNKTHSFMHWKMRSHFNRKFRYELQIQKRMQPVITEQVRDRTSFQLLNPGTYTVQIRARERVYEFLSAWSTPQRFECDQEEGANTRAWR
As to the kind of experiment: flow cytometry of CAR T cells stained with APC-conjugated recombinant human IL3RA (FIG. 2B). As to the method:
(§1) Flow cytometric analysis. Cells were stained with fluorochrome-conjugated primary antibodies for 30 min at room temperature and washed with FACS buffer (5% FBS in 1×PBS) prior to analysis. Cell surface GRP78 was detected by a GRP78-specific peptide with an N-terminal Biotin tag (Biotin-Ahx-[…]; SEQ ID NO: 126) was obtained from Genscript (Piscataway, NJ) in combination with Streptavidin PE (BioLegend, San Diego, CA. CCAT #405204) using a 2-step staining protocol. Cells were incubated with GRP78 peptide for 30 minutes at room temperature, protected from light. Cells were washed twice prior to staining with additional antibodies. Recombinant CD123 Recombinant Human IL3RA protein conjugated to APC (Creative BioMart, CAT #IL3RA-3248HA) was used to detect CD123 scFv binding. The following antibodies were purchased from BD Biosciences: CCR7 Pacific Blue (BD Pharmigen, Clone G043H7 CAT #353210), CD45RO PerCP-Cy5.5 (BD Pharmigen, Clone UCHL1, CAT #560607), CD123 APC (BD Pharmigen, Clone 7G3, CAT #560087), CD3 BV421 (BD Horizon, Clone SK7, CAT #563797), CD3 BV786 (BD Horizon, Clone SK7, CAT #563800), CD19 PE-Cy7 (BD Pharmigen, Clone HIB19, CAT #560728), CD20 BV650 (BD Horizon, Clone 2H7, CAT #563780). […]
On the technique in general: In flow cytometry, cells or beads pass a laser one at a time.

For assay [2], the target named is T2, cell surface glucose-regulated-protein 78 (GRP78) (UniProt P11021 19-654, limits assumed).
T2 construct: whole, on cells; also called GRP78 antigen; HSPA5
As to the kind of experiment: flow cytometry on cell lines, 2-step staining with Streptavidin PE. As for the experimental part:
as §1

T2 sequence (P11021 19-654 limits assumed): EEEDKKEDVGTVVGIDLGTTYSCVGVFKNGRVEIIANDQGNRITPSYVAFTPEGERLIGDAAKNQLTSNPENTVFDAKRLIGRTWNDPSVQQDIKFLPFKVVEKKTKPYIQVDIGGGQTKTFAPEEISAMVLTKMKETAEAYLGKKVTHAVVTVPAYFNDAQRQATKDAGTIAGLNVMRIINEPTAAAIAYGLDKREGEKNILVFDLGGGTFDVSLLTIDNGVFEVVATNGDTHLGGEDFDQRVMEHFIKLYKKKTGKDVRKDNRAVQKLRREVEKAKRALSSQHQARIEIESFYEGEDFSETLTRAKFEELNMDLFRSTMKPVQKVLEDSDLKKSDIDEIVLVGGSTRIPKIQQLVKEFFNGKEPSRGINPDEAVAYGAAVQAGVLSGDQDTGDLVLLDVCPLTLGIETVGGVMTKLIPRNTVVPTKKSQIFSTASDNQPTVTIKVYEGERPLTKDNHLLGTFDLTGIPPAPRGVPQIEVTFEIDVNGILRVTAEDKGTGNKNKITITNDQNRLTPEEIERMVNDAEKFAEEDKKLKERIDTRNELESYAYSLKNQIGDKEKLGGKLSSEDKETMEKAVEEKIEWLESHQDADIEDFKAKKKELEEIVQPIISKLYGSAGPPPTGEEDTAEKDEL

B1: GRP78-GPcPcPc-CD123-CAR (other)
chain: CTVALPGGYVRVCEFAGSGGSGGSGGSPVPSTPPTNSSSTPPTPSPSPVPSTPPTNSSSTPPTPSPSPVPSTPPTNSSSTPPTPSPSASAAAQVQLQQPGAELVRPGASVKLSCKASGYTFTSYWMNWVKQRPDQGLEWIGRIDPYDSETHYNQKFKDKAILTVDKSSSTAYMQLSSLTSEDSAVYYCARGNWDDYWGQGTTLTVSSGGGGSGGGGSGGGGSDVQITQSPSYLAASPGETITINCRASKSISKDLAWYQEKPGKTNKLLIYSGSTLQSGIPSRFSGSGSGTDFTLTISSLEPEDFAMYYCQQHNKYPYTFGGGTKLEIKSIEVMYPPPYLDNEKSNGTIIHVKGKHLCPSPLFPGPSKPFWVLVVVGGVLACYSLLVTVAFIIFWVRSKRSRLLHSDYMNMTPRRPGPTRKHYQPYAPPRDFAAYRSRVKFSRSADAPAYQQGQNQLYNELNLGRREEYDVLDKRRGRDPEMGGKPRRKNPQEGLYNELQKDKMAEAYSEIGMKGERRRGKGHDGLYQGLSTATKDTYDALHMQALPPR
Take B1: the “% of transduced T cells positive for recombinant CD123 protein” value in assay [1] came out at 83.6%.

B2: GRP78-specific peptide with an N-terminal Biotin tag (Biotin-Ahx-CTVALPGGYVRVC) (peptide)
peptide: {Biotin-Ahx}-CTVALPGGYVRVC
modifications: cysteine pairing not given here
notes: Obtained from Genscript; Detected with Streptavidin PE in a 2-step staining; also called GRP78-biotin; GRP78 peptide
For the molecule B2, in assay [2], the binding result was “binds”.

B3: GRP78-G4S3-CD123-CAR (other)
chain: CTVALPGGYVRVCEFGGGGSGGGGSGGGGSAAAQVQLQQPGAELVRPGASVKLSCKASGYTFTSYWMNWVKQRPDQGLEWIGRIDPYDSETHYNQKFKDKAILTVDKSSSTAYMQLSSLTSEDSAVYYCARGNWDDYWGQGTTLTVSSGGGGSGGGGSGGGGSDVQITQSPSYLAASPGETITINCRASKSISKDLAWYQEKPGKTNKLLIYSGSTLQSGIPSRFSGSGSGTDFTLTISSLEPEDFAMYYCQQHNKYPYTFGGGTKLEIKSIEVMYPPPYLDNEKSNGTIIHVKGKHLCPSPLFPGPSKPFWVLVVVGGVLACYSLLVTVAFIIFWVRSKRSRLLHSDYMNMTPRRPGPTRKHYQPYAPPRDFAAYRSRVKFSRSADAPAYQQGQNQLYNELNLGRREEYDVLDKRRGRDPEMGGKPRRKNPQEGLYNELQKDKMAEAYSEIGMKGERRRGKGHDGLYQGLSTATKDTYDALHMQALPPR
notes: Residues from 510 on (spacer RSGVDSG, T2A, tCD19) are also left out; also called 78.(G4S)3.123; G4S2
For B3, in assay [1], the “% of transduced T cells positive for recombinant CD123 protein” value was determined as 87.5%.
